The target in the assay is recombinant mouse CD39 (mouse) (UniProt P55772). The experiment in a line: BLI, Duha59 amine-coupled to AR2G biosensor, recombinant mouse CD39 as analyte, 1:1 model.

This note sets out measurements from patent US20220372160A1.

A word on the Kd: it is the concentration at which binding is half-saturated.

Sequence of recombinant mouse CD39 (mouse) (P55772 38-478 limits assumed): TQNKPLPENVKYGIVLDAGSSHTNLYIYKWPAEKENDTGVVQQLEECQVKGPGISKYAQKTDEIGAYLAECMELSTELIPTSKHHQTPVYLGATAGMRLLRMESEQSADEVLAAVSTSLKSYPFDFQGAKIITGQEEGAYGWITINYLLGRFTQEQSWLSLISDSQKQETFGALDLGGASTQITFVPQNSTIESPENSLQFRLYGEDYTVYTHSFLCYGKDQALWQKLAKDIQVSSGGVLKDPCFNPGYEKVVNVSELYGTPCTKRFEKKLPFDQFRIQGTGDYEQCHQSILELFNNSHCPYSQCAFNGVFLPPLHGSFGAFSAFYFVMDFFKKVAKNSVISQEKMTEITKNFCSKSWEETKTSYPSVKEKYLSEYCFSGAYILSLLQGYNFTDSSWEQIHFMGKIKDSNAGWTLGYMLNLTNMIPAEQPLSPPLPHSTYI

For “rat anti-mouse CD39 Duha59 clone (antibody)”, the Kd turned out to be 1.09 nM.
